In patent US20140128280A1 (published 2014):

T1: Gal80 (UniProt P04387 1-435, limits assumed)
T1 construct: Cy3/Cy5-labeled on arrays; immobilized on SPR chip or ELISA well, or in solution over immobilized synbody
T1 sequence (looked up): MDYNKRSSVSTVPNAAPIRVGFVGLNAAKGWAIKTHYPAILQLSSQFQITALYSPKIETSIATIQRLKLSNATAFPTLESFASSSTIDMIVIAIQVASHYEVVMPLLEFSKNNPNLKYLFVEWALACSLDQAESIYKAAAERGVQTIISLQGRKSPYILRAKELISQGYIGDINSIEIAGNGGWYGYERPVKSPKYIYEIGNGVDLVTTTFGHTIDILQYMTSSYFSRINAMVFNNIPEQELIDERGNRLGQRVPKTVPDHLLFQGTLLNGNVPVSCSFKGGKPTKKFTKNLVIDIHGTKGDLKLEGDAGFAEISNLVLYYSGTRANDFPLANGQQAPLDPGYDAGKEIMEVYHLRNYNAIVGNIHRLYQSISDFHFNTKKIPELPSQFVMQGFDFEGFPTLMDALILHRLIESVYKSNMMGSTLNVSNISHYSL

B1: BP1/BP2 DNA-linked synbody (linker-optimized: BP1 on the template strand, BP2 at position 13 from the 3' end of the variable strand) (designed binder)
peptide 1: GTEKGTSGWLKTGSC
peptide 2: EGEWTEGKLSLRGSC
modifications: C-terminal Cys joined through SMCC to the amine-modified cytosine at position 13 from the 3' terminus of the DNA variable strand (SEQ ID NO: 15); C-terminal Cys joined through SMCC to the 5' terminal amine-modified cytosine of the DNA template strand (SEQ ID NO: 14)
notes: Two peptides held by a double-stranded DNA linker; also called Gal80 synbody; gal80 synbody

Legend:
[1] = molecular target: T2, α1-antitrypsin; assay: SPR
T2 construct: also called α-antitrypsin; α-antitrypsine

[2] = molecular target: T1, Gal80; assay: gel shift assay
[3] = molecular target: T1, Gal80; assay: SPR, synbody in solution (1 µM to 7.81 nM) over surface-bound Gal80
[4] = molecular target: T3, transferrin (human, UniProt P02787 20-698); assay: SPR (Biacore A-100), purified peptide at several concentrations
T3 construct: Amine-coupled to SPR chips, tips or beads; Alexa 555-labeled on arrays; also called TRF; pooled human transferrin (Sigma)
T3 sequence (P02787 20-698 limits assumed): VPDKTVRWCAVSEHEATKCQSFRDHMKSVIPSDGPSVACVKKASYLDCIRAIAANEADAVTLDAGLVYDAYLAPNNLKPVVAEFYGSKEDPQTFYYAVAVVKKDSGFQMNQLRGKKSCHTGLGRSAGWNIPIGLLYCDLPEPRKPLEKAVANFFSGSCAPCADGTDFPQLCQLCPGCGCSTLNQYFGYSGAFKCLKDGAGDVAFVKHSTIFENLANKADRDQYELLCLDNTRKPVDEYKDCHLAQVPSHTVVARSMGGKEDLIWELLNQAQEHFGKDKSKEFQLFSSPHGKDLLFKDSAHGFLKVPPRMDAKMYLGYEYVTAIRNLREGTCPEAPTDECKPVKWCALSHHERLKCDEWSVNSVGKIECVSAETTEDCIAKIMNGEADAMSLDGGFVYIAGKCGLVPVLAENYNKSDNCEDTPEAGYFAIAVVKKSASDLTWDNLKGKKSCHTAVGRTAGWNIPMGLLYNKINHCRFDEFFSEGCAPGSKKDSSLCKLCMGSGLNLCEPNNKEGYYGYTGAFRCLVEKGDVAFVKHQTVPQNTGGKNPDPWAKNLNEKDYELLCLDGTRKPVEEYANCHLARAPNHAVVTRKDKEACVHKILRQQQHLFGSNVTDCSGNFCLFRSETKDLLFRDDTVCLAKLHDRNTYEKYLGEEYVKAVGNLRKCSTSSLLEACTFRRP
Excerpt: A Biacore A-100 Surface Plasmon Resonance (SPR) system was used to measure the binding response of each peptide to several different target proteins immobilized on a gold surface. The A-100 has four different flow cells and within each flow cell are five addressable spots. Therefore four different proteins and a negative control reference can be used per flow cell. […] Sensorgrams are collected from each immobilized protein, so a binding profile for each analyte versus each of the protein targets is generated for each injection. Target proteins were immobilized using a biotin capture approach in which a CM5 chip was activated using standard amine coupling chemistry and Neutravidin was covalently coupled to the chip. Each biotinylated protein was injected over a single spot and the amount of protein captured was measured. In this manner four proteins were immobilized per flow cell. In this example, the same four proteins were captured in all four flow cells for this experiment.

T2 sequence (P01009 25-418): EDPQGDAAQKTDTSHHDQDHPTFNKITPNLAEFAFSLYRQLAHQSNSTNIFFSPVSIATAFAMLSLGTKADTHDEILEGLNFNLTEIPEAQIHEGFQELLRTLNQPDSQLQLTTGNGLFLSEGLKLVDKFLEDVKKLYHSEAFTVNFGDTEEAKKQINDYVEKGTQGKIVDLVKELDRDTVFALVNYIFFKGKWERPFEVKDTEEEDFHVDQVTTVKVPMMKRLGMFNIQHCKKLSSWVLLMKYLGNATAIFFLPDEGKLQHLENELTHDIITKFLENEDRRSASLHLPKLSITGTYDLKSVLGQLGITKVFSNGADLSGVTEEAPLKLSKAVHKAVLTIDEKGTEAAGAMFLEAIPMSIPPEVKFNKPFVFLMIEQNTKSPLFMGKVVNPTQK

Binder | Kd relative to the Kd for gal80 [1] [fold] | Kd [2] [nM] | Kd [3] [nM] | binding result [4]
B1 | 1000 | ~100 | 91 | 
NQYVPIFSQPEDPVQQEGSC (Screened unpurified) [TRF102] |  |  |  | no binding
